Measurements: patent US20200299341A1 (SOCIETE DE COMMERCIALISATION DES PRODUITS DE LA RECHERCHE …, published 2020)

Molecular target: the molecule itself
Experiment: CD thermal denaturation at 222 nm, 16 uM, homodimer
Protocol: 16 μM of Mad1*DN, Mad1*DN-KR and/or Max* diluted in Phosphate buffer (50 mM) containing 50 mM KCl and 0.5 mM TCEP were subjected to temperature increase as the dichroic signal corresponding to α-Helical signal (222 nm) was recorded. Individual denaturation curves for each protein was recorded. To compare the heterodimeric complex formation, Mad1*DN or Mad1*DN-KR were mixed with Max* at equimolar concentration (16 μM each) in the same buffer adjusted at 1 mM TCEP. The experimental denaturation curves of the complexes (Mad1*DN/Max* or Mad1DN-KR/Max*) were compared to the summation of the individual curves of each homodimer which correspond to an absence of interaction between the two proteins in solution.

B1: Mad1*DN-KR (Mad1 b-HLH-LZ domain with C75S, E77K, G81R, C111S, D112N) (other)
chain: MSRSTHNEMEKNRRAHLRLSLKKLKRLVPLGPESSRHTTLSLLTKAKLHIKKLEDSNRKAVHQVDQLQREQRHLKRQLEKLGGSGC
notes: Engineered variant of the human Mad1 b-HLH-LZ domain; It forms a homodimer alone and a heterodimer with Max*; also called KR analog of Mad1*DN
- binding result: binds
